For the test, the target named is 2081/anti-NF IgG, polyclonal antibody generated against the SEVNF peptide. As to the kind of experiment: ORIGEN ECL competition against biotinylated-SEVNF; reference SEVNF.

In patent publication US20070219354A1 one finds fold less effective in competition than SEVNF data, which are given here for 1 molecule.

In turn, SEVNL [SEVNL peptide] yielded a fold less effective in competition than SEVNF of 100 fold.
